Assay [1] deals with T1, rat calcitonin receptor (rat, UniProt P32214 25-516).
T1 construct: whole, on cells; also called rCTR; rat calcitonin (a) receptor
T1 sequence (looked up): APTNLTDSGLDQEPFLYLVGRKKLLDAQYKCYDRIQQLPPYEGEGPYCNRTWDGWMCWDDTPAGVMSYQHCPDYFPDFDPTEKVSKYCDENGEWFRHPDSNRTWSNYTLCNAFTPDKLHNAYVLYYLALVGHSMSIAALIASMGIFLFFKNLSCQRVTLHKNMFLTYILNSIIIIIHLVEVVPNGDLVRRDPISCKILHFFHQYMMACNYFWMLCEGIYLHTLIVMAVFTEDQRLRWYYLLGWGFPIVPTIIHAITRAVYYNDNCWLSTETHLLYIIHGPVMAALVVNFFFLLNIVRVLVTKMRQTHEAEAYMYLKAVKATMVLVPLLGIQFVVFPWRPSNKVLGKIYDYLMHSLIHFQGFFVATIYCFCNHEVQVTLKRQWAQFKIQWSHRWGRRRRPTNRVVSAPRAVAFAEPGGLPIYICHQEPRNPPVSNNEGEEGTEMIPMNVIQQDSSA
The experiment in a line: ratio of binding IC50s: rat calcitonin receptor over rat amylin receptor (reference).

Assay [2] addresses T2, human calcitonin receptor (human, UniProt P30988 25-474).
T2 construct: whole, on cells; also called hCTR; hCT
T2 sequence (looked up): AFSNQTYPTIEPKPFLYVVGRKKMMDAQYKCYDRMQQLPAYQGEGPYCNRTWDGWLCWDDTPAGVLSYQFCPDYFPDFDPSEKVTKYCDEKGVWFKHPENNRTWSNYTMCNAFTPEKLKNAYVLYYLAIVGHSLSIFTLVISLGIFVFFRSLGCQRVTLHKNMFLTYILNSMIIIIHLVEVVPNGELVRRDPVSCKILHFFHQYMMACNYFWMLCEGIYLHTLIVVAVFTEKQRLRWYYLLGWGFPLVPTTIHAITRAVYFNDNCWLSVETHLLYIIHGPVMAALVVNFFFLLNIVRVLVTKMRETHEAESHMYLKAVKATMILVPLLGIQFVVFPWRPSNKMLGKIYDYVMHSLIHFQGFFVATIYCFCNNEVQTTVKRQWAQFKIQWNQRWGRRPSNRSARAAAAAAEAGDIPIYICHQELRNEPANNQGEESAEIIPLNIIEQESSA
The experiment in a line: ratio of binding IC50s: human calcitonin receptor over human amylin receptor (reference). In outline:
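IC₅₀ values were derived by one-site competition analysis of SPA counts. Cell membranes (35 ng/μL) with SPA beads were incubated with test compounds for 120 min at 25° C in Hepes buffer, pH 7.4, containing CaCl2, MgCl₂, OA and Tween20.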

Assay [3] deals with T1, rat calcitonin receptor. The experiment in a line: SPA competition with 125I-calcitonin, membranes of BHK cells with rat calcitonin receptor (Assay VIII).
The target in assay [4] is T3, rat amylin receptor (rat calcitonin receptor + rat RAMP 3) (rat, UniProt P32214 25-516; Q9JJ73 23-147).
T3 construct: whole, on cells; also called rAmylin-R; rat amylin 3(a) receptor
T3 sequence (looked up) 1: T1 sequence (looked up)
T3 sequence (looked up) 2: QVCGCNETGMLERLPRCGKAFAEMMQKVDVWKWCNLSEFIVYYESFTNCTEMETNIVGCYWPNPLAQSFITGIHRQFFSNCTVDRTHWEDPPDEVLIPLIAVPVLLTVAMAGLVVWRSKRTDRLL
The experiment in a line: SPA competition with 125I-rat amylin, membranes of BHK cells with rat calcitonin receptor + rat RAMP3 (Assay VI).

Numbered stars: 1 amine (or outer) side, 2 acyl side, 3 side chain; on linkers, the order of the positions; unused ones are H or OH. Bridge positions count the residues as written; N and C are the ends. Side chains are listed from the residue outwards. Ends that are not written are not given here. * marks the point of attachment. C20 diacid = O=C(O)CCCCCCCCCCCCCCCCCCC(=O)*; γGlu = O=C(O)[C@H](CCC(=O)[*:2])N[*:1]; AEEA = NCCOCCOCC(=O)O

B1: N^ε1-[2-[2-[2-[[(4S)-4-carboxy-4-(19-carboxynonadecanoylamino)butanoyl]amino]ethoxy]ethoxy]acetyl]-[His14,Arg17,Pro21,Pro27,Pro31]-h-amylin (peptide)
peptide: K([AEEA-γGlu-C20 diacid])CNTATCATQRLAHFLRHSSPNFGAIPSSTPVGSNTY-NH2
modifications: disulfide 2-7; N-terminus assumed
SMILES: CC[C@H](C)[C@H](NC(=O)[C@H](C)NC(=O)CNC(=O)[C@H](Cc1ccccc1)NC(=O)[C@H](CC(N)=O)NC(=O)[C@@H]1CCCN1C(=O)[C@H](CO)NC(=O)[C@H](CO)NC(=O)[C@H](Cc1c[nH]cn1)NC(=O)[C@H](CCCNC(=N)N)NC(=O)[C@H](CC(C)C)NC(=O)[C@H](Cc1ccccc1)NC(=O)[C@H](Cc1c[nH]cn1)NC(=O)[C@H](C)NC(=O)[C@H](CC(C)C)NC(=O)[C@H](CCCNC(=N)N)NC(=O)[C@H](CCC(N)=O)NC(=O)[C@@H](NC(=O)[C@H](C)NC(=O)[C@@H]1CSSC[C@H](NC(=O)[C@@H](N)CCCCNC(=O)COCCOCCNC(=O)CC[C@H](NC(=O)CCCCCCCCCCCCCCCCCCC(=O)O)C(=O)O)C(=O)N[C@@H](CC(N)=O)C(=O)N[C@@H]([C@@H](C)O)C(=O)N[C@@H](C)C(=O)N[C@@H]([C@@H](C)O)C(=O)N1)[C@@H](C)O)C(=O)N1CCC[C@H]1C(=O)N[C@@H](CO)C(=O)N[C@@H](CO)C(=O)N[C@H](C(=O)N1CCC[C@H]1C(=O)N[C@H](C(=O)NCC(=O)N[C@@H](CO)C(=O)N[C@@H](CC(N)=O)C(=O)N[C@H](C(=O)N[C@@H](Cc1ccc(O)cc1)C(N)=O)[C@@H](C)O)C(C)C)[C@@H](C)O
notes: synthetic analogue of human amylin; also called compound 61
On to B1, for which, in the assay with rat calcitonin receptor [1], the “Ratio rCT/rAmylin binding” value was 39.7. Besides, the “Ratio hCT/hAmylin binding” value in assay [2] was found to be 66.7. Also, the IC50 in the assay with rat calcitonin receptor [3] worked out at 33.4 nM; in assay [4], 0.842 nM.

B2: N^ε1-[2-[2-[2-[[(4S)-4-carboxy-4-(19-carboxynonadecanoylamino)butanoyl]amino]ethoxy]ethoxy]acetyl]-[Lys14,Arg17,Pro21,Pro27,Pro31]-h-amylin (peptide)
peptide: K([AEEA-γGlu-C20 diacid])CNTATCATQRLAKFLRHSSPNFGAIPSSTPVGSNTY-NH2
modifications: disulfide 2-7; N-terminus assumed
SMILES: CC[C@H](C)[C@H](NC(=O)[C@H](C)NC(=O)CNC(=O)[C@H](Cc1ccccc1)NC(=O)[C@H](CC(N)=O)NC(=O)[C@@H]1CCCN1C(=O)[C@H](CO)NC(=O)[C@H](CO)NC(=O)[C@H](Cc1c[nH]cn1)NC(=O)[C@H](CCCNC(=N)N)NC(=O)[C@H](CC(C)C)NC(=O)[C@H](Cc1ccccc1)NC(=O)[C@H](CCCCN)NC(=O)[C@H](C)NC(=O)[C@H](CC(C)C)NC(=O)[C@H](CCCNC(=N)N)NC(=O)[C@H](CCC(N)=O)NC(=O)[C@@H](NC(=O)[C@H](C)NC(=O)[C@@H]1CSSC[C@H](NC(=O)[C@@H](N)CCCCNC(=O)COCCOCCNC(=O)CC[C@H](NC(=O)CCCCCCCCCCCCCCCCCCC(=O)O)C(=O)O)C(=O)N[C@@H](CC(N)=O)C(=O)N[C@@H]([C@@H](C)O)C(=O)N[C@@H](C)C(=O)N[C@@H]([C@@H](C)O)C(=O)N1)[C@@H](C)O)C(=O)N1CCC[C@H]1C(=O)N[C@@H](CO)C(=O)N[C@@H](CO)C(=O)N[C@H](C(=O)N1CCC[C@H]1C(=O)N[C@H](C(=O)NCC(=O)N[C@@H](CO)C(=O)N[C@@H](CC(N)=O)C(=O)N[C@H](C(=O)N[C@@H](Cc1ccc(O)cc1)C(N)=O)[C@@H](C)O)C(C)C)[C@@H](C)O
notes: synthetic analogue of human amylin; also called compound 74
On to B2, for which the “Ratio rCT/rAmylin binding” value with rat calcitonin receptor [1] was 22.3. In addition, the “Ratio hCT/hAmylin binding” value in assay [2] was 101. Further, the IC50 with rat calcitonin receptor [3] was found to be 109 nM; in assay [4], 4.89 nM.

B3: N^ε1-[2-[2-[2-[[(4S)-4-carboxy-4-(19-carboxynonadecanoylamino)butanoyl]amino]ethoxy]ethoxy]acetyl]-[His14,Arg17,Pro21,Pro27,Pro34]-h-amylin (peptide)
peptide: K([AEEA-γGlu-C20 diacid])CNTATCATQRLAHFLRHSSPNFGAIPSSTNVGPNTY-NH2
modifications: disulfide 2-7; N-terminus assumed
SMILES: CC[C@H](C)[C@H](NC(=O)[C@H](C)NC(=O)CNC(=O)[C@H](Cc1ccccc1)NC(=O)[C@H](CC(N)=O)NC(=O)[C@@H]1CCCN1C(=O)[C@H](CO)NC(=O)[C@H](CO)NC(=O)[C@H](Cc1c[nH]cn1)NC(=O)[C@H](CCCNC(=N)N)NC(=O)[C@H](CC(C)C)NC(=O)[C@H](Cc1ccccc1)NC(=O)[C@H](Cc1c[nH]cn1)NC(=O)[C@H](C)NC(=O)[C@H](CC(C)C)NC(=O)[C@H](CCCNC(=N)N)NC(=O)[C@H](CCC(N)=O)NC(=O)[C@@H](NC(=O)[C@H](C)NC(=O)[C@@H]1CSSC[C@H](NC(=O)[C@@H](N)CCCCNC(=O)COCCOCCNC(=O)CC[C@H](NC(=O)CCCCCCCCCCCCCCCCCCC(=O)O)C(=O)O)C(=O)N[C@@H](CC(N)=O)C(=O)N[C@@H]([C@@H](C)O)C(=O)N[C@@H](C)C(=O)N[C@@H]([C@@H](C)O)C(=O)N1)[C@@H](C)O)C(=O)N1CCC[C@H]1C(=O)N[C@@H](CO)C(=O)N[C@@H](CO)C(=O)N[C@H](C(=O)N[C@@H](CC(N)=O)C(=O)N[C@H](C(=O)NCC(=O)N1CCC[C@H]1C(=O)N[C@@H](CC(N)=O)C(=O)N[C@H](C(=O)N[C@@H](Cc1ccc(O)cc1)C(N)=O)[C@@H](C)O)C(C)C)[C@@H](C)O
notes: synthetic analogue of human amylin; also called compound 68
On to B3, for which the “Ratio rCT/rAmylin binding” value in the assay with rat calcitonin receptor [1] stood at 122. In assay [2], the “Ratio hCT/hAmylin binding” value worked out at 64.4. Further, the IC50 came to 28.5 nM with rat calcitonin receptor [3] and 0.234 nM in assay [4].

B4: N^ε1-[2-[2-[2-[[(4S)-4-carboxy-4-(19-carboxynonadecanoylamino)butanoyl]amino]ethoxy]ethoxy]acetyl]-[Ser14,Arg17,Pro21,Pro27,Pro31]-h-amylin (peptide)
peptide: K([AEEA-γGlu-C20 diacid])CNTATCATQRLASFLRHSSPNFGAIPSSTPVGSNTY-NH2
modifications: disulfide 2-7; N-terminus assumed
SMILES: CC[C@H](C)[C@H](NC(=O)[C@H](C)NC(=O)CNC(=O)[C@H](Cc1ccccc1)NC(=O)[C@H](CC(N)=O)NC(=O)[C@@H]1CCCN1C(=O)[C@H](CO)NC(=O)[C@H](CO)NC(=O)[C@H](Cc1c[nH]cn1)NC(=O)[C@H](CCCNC(=N)N)NC(=O)[C@H](CC(C)C)NC(=O)[C@H](Cc1ccccc1)NC(=O)[C@H](CO)NC(=O)[C@H](C)NC(=O)[C@H](CC(C)C)NC(=O)[C@H](CCCNC(=N)N)NC(=O)[C@H](CCC(N)=O)NC(=O)[C@@H](NC(=O)[C@H](C)NC(=O)[C@@H]1CSSC[C@H](NC(=O)[C@@H](N)CCCCNC(=O)COCCOCCNC(=O)CC[C@H](NC(=O)CCCCCCCCCCCCCCCCCCC(=O)O)C(=O)O)C(=O)N[C@@H](CC(N)=O)C(=O)N[C@@H]([C@@H](C)O)C(=O)N[C@@H](C)C(=O)N[C@@H]([C@@H](C)O)C(=O)N1)[C@@H](C)O)C(=O)N1CCC[C@H]1C(=O)N[C@@H](CO)C(=O)N[C@@H](CO)C(=O)N[C@H](C(=O)N1CCC[C@H]1C(=O)N[C@H](C(=O)NCC(=O)N[C@@H](CO)C(=O)N[C@@H](CC(N)=O)C(=O)N[C@H](C(=O)N[C@@H](Cc1ccc(O)cc1)C(N)=O)[C@@H](C)O)C(C)C)[C@@H](C)O
notes: synthetic analogue of human amylin; also called compound 73
B4: the “Ratio rCT/rAmylin binding” value with rat calcitonin receptor [1] is 178. The “Ratio hCT/hAmylin binding” value in assay [2] worked out at 51.7. The IC50 with rat calcitonin receptor [3] was found to be 50.3 nM; in assay [4], 0.283 nM.

B5: N^ε1-[2-[2-[2-[[(4S)-4-carboxy-4-(19-carboxynonadecanoylamino)butanoyl]amino]ethoxy]ethoxy]acetyl]-[Thr14,Arg17,Pro21,Pro27,Pro31]-h-amylin (peptide)
peptide: K([AEEA-γGlu-C20 diacid])CNTATCATQRLATFLRHSSPNFGAIPSSTPVGSNTY-NH2
modifications: disulfide 2-7; N-terminus assumed
SMILES: CC[C@H](C)[C@H](NC(=O)[C@H](C)NC(=O)CNC(=O)[C@H](Cc1ccccc1)NC(=O)[C@H](CC(N)=O)NC(=O)[C@@H]1CCCN1C(=O)[C@H](CO)NC(=O)[C@H](CO)NC(=O)[C@H](Cc1c[nH]cn1)NC(=O)[C@H](CCCNC(=N)N)NC(=O)[C@H](CC(C)C)NC(=O)[C@H](Cc1ccccc1)NC(=O)[C@@H](NC(=O)[C@H](C)NC(=O)[C@H](CC(C)C)NC(=O)[C@H](CCCNC(=N)N)NC(=O)[C@H](CCC(N)=O)NC(=O)[C@@H](NC(=O)[C@H](C)NC(=O)[C@@H]1CSSC[C@H](NC(=O)[C@@H](N)CCCCNC(=O)COCCOCCNC(=O)CC[C@H](NC(=O)CCCCCCCCCCCCCCCCCCC(=O)O)C(=O)O)C(=O)N[C@@H](CC(N)=O)C(=O)N[C@@H]([C@@H](C)O)C(=O)N[C@@H](C)C(=O)N[C@@H]([C@@H](C)O)C(=O)N1)[C@@H](C)O)[C@@H](C)O)C(=O)N1CCC[C@H]1C(=O)N[C@@H](CO)C(=O)N[C@@H](CO)C(=O)N[C@H](C(=O)N1CCC[C@H]1C(=O)N[C@H](C(=O)NCC(=O)N[C@@H](CO)C(=O)N[C@@H](CC(N)=O)C(=O)N[C@H](C(=O)N[C@@H](Cc1ccc(O)cc1)C(N)=O)[C@@H](C)O)C(C)C)[C@@H](C)O
notes: synthetic analogue of human amylin; also called compound 75
B5: the “Ratio rCT/rAmylin binding” value in the assay with rat calcitonin receptor [1] came out at 110. Also, the “Ratio hCT/hAmylin binding” value in assay [2] amounted to 91.4. In addition, the IC50 in the assay with rat calcitonin receptor [3] stood at 442 nM; in assay [4], 4.03 nM.
